{"source": "patent US20180037663A1", "about": "(OHIO STATE INNOVATION FOUNDATION, published 2018)", "binders": {"B1": {"name": "3E8.scFv (scFv)", "scFv": "GSSGDIVMTQSPDSLAVSLGERATINCKSSQSVLYSSNNKNYLAWYQQKPGQPPKLLIYWASTRESGVPDRFSGSGSGTDFTLTISSLQAEDVAVYYCQQYYSYPLTFGGGTKVEIKLSADDAKKDAAKKDDAKKDDAKKDLQVQLVQSGAEVKKPGASVKVSCKASGYTFTDHAIHWVRQAPGQRLEWMGYFSPGNDDFKYSQKFQGRVTITADKSASTAYMELSSLRSEDTAVYYCARSWIMQYWGQGTLVTVSS", "notes": "Monomeric scFv purified from the E. coli periplasm; Labelled at lysines with fluorescein (dot blots) or biotin (HRP dot blot, IHC); also called scFv of 3E8; single chain variable fragment of 3E8"}}, "target": "T1, bovine submaxillary mucin (bovine)", "T1 construct": "Used as surrogate antigen for TAG-72; also called BSM", "assay": "binding study of FIG. 14 (inhibition dot blot), compared with 3E8.IgG", "data": [{"binder": "B1", "values": [{"measurement": "fold worse binder than 3E8.IgG", "result": "~16", "unit": "fold"}]}]}
